Sequences and labels used below:
B1: monobody MB_(CRS6)-15, purified (designed binder)
chain: GSVSSVPTKLEVVAATPTSLLISWDAPAVTVYLYVITYGETGGNSPVQEFEVPGSKSTATISGLKPGVDYTITVYASSKHSSRYASPISINYRT
B2: CrSAS-6_6HR, N-terminal domain and six heptad repeats of the coiled-coil of Chlamydomonas reinhardtii SAS-6 (domain or fragment)
chain: MPLLLDDGDPKAQTGFDLSTATTLFWRPVPVHVKQQDREDVLEELTFRILTGVAKQNHNLRILRIHISSDSDLFFLHTLEVSEEDFQSLKNDQGILVDFASFPGKIISLLEKCILAQPGDSPRFQAVLTIRGGESVFKIVEINDFKQLPHITLAFRPGNDSVVKQFLAFRLSEVKGTCHDLSDDLSRTRDDRDSMVAQLAQCRQQLAQLREQYDKHLLEVQAQAKT

Holding throughout (assay): ITC
For assay [1], the target named is B2.
The target of assay [2] is MBCRS6-12.
Assay [3] deals with MBCRS6-5.
The target of assay [4] is MBCRS6-3.
Assay [5] concerns the target MBCRS6-2.
In assay [6] the target is MBCRS6-6.
The target in assay [7] is MBCRS6-4.
In assay [8] the target is MBCRS6-5. This is another data set of the same source.

Where two headings read alike, the source gives them in different places.

Take B1: in assay [1], the affinity, expressed as Kd, was 468 nM.

On to B2, for which the Kd in assay [2] amounted to 193 nM; in assay [3], 31.1 nM; in assay [4], 369 nM; in assay [5], 88700 nM; in assay [6], 570 nM; in assay [7], 316 nM. Also, in assay [8], the affinity, expressed as Kd, was 31 nM.

For the origin of these results see paper PMC8217511 (2021).
